According to patent US20250215403A1, “Compositions and Methods for Cardiac Tissue Regeneration” (Temple University - Of The Commonwealth System Of Higher …, priority 2022, published 2025):

How the values were obtained:
[1] = tested on: serine synthesis pathway (SSP); assay: Serine and glycine levels in mouse heart post-MI; type: in vivo; details: two days post-MI; HPLC study; vs Luc modRNA
[2] = tested on: NRVM; assay: TUNEL apoptosis of NRVMs under hypoxic conditions; type: cell-based, rat; details: hypoxic conditions for 24 hours; agent alone
[3] = tested on: cardiomyocytes (CM); assay: DNA damage response immunostaining (8-OHG, pATM) in CMs post-MI; type: in vivo, mouse; details: two days post-MI; compared to Luc
Method: (§1) Mice hearts were harvested, weighed, and fixed in 4% PFA/PBS overnight on shaker and then washed with PBS for 1 hour and incubated in 30% sucrose/PBS at 4° C. for 12-18 hours. Hearts were then fixed in OCT and frozen at −80° C. (Magadum A., et al., Circulation. 2020, 141 (15): 1249-1265). Transverse heart sections (6-8 μm) were made using a cryostat. Frozen sections were rehydrated in PBS for 5-10 min followed by permeabilization with PBS with 0.1% Triton™ X100 (PBST) for 7-8 min. Heart sections were then treated with 3% H2O2 for 5 min and washed (3×5 min) with PBST. The samples were then blocked with PBS+10% Donkey normal serum+0.1% Triton™ X100 (PBSST) for 1 hour at room temperature. Primary antibodies (see complete list of primary antibodies used for this Example in Table 2 below) diluted in PBST were added and incubated overnight at 4° C. […] For immunostaining with wheat germ agglutinin (WGA) for CM size quantification, images were captured at 40× magnification, and ImageJ was used to determine the area of each cell. Quantitative analyses involved counting of multiple fields from 5-8 mouse hearts per group, and 3-4 sections/heart (˜50 cells per field assessed, for a total ˜250 cells per sample). […] BrdU positive CMs were counted in multiple fields from three independent samples per group and 3 sections/heart. The total number of CMs counted was ˜1-1.5×10^3 CMs per section. […]

[4] = tested on: β-catenin; assay: β-catenin immunostaining in CM nucleus and cytoplasm; type: cell-based, rat; details: NRVM; 48 hours after modRNA
Method: as §1

[5] = tested on: cardiomyocytes (CM); assay: CM division lineage tracing in α-MHC-MADM mice post-MI; type: in vivo, mouse
Method: All animal procedures were performed under protocols approved by the Temple University Animal Care and Use Committee. Male and female C57BL6 mice were used. Different modRNAs (100 μg/heart) were injected directly into the myocardium in open chest surgery. Three to ten animals used for each experiment. For mice survival, C57BL6 mice (10-12-weeks-old) treated with Luc or PSAT1 modRNAs (n=10) post induction of MI and were followed for the indicated time. Deaths were monitored and documented over time. Tamoxifen-inducible CM-restricted MADM mice (α-MHC-MADM mice) mice were generated by crossing MADM mice (Jackson laboratory) to […].^Tg(Myh6-cre/Esr1*) 1Jmk/J (Cat no. 005657) mice to get α-MHC-MADM mice (Yuko, A. E., et al., 2021, Redox Biology, 47:102162). Tamoxifen (Sigma-Aldrich) was dissolved in sesame oil at 10 mg/ml as stock solution. To induce Cre activation, tamoxifen was administered to mice by intraperitoneal (IP) injection five times (48 h interval between administrations) at 40 mg/kg body weight for adult mice (Yuko, A. E., et al., 2021, Redox Biology, 47:102162). The tissues were harvested at mentioned time for analysis.
To analyze the cardiomyocyte division in vivo post-MI, cardiomyocyte specific mosaic analysis with double markers (MADM) mice, generated as described previously, were used (Yuko, A. E., et al., 2021, Redox Biology, 47:102162). The CM-specific transgenic mice were generated by crossing MADM mice (Jackson laboratory) to B6.FVB (129)-A1cf.^Tg(Myh6-cre/Esr1*) 1 Jmk/J (Cat no. 005657) mice to get α-MHC-MADM mice. In the MADM system, because of interchromosomal Cre-loxP recombination after S phase of the cell cycle, the daughter cells will get labeled (single colored) with either GFP (Green) or RFP (Red). The MADM single-labeling can only be attained by end of the cell cycle through cytokinesis. The inducible MADM system warrants temporal control of recombination and offers direct evidence for cell division. […]

B1: PSAT1 modRNA: modified mRNA with N1-methylpseudouridine, transcribed in vitro, encoding phosphoserine aminotransferase 1 (ORF SEQ ID NO: 1, RNA SEQ ID NO: 2) (nucleic acid)
chain: AUGGAAGCCACCAAGCAAGUGGUUAACUUUGGGCCCGGGCCUGCCAAGCUGCCACACUCGGUAUUGUUGGAGAUCCAGAAGCAGCUACUAGACUACAGAGGACUCGGCAUCAGUGUGCUCGAAAUGAGUCACAGGUCAUCAGAUUUUGCCAAGAUUAUUGGCAAUACAGAGAAUCUUGUGAGGGAAUUGCUAGCUGUUCCCAACAACUACAAGGUGAUCUUUGUACAAGGAGGUGGGUCUGGCCAGUUCAGUGCUGUCCCCUUAAAUCUGAUUGGCCUGAAAGCUGGAAGGAGUGCUGACUACGUGGUGACCGGAGCUUGGUCAGCUAAGGCUGCGGAAGAAGCCAAGAAGUUUGGAACGGUGAACAUUGUCCACCCUAAACUUGGAAGUUACACAAAAAUUCCAGACCCAAGCACCUGGAACCUCAACCCGGACGCCUCCUAUGUAUACUUCUGUGCAAACGAGACUGUGCACGGGGUGGAGUUUGACUUCGUACCUGACGUCAAGGGAGCGGUGCUGGUCUGUGACAUGUCCUCAAACUUCUUAUCCAGGCCGGUGGAUGUUUCCAAGUUUGGUGUGAUUUUCGCUGGUGCUCAGAAGAAUGUUGGCUCUGCCGGGGUGACGGUGGUGAUUGUCCGGGAUGACCUGCUGGGGUUCUCGCUCAGAGAGUGCCCAUCAGUCCUUGACUACAAAGUGCAGGCUGGGAACAACUCUUUGUAUAACACACCUCCGUGCUUCAGCAUCUACGUCAUGGGCAUGGUCCUGGAAUGGAUCAAGAACAACGGCGGGGCCGCAGCCAUGGAGAAGCUCAGCUCCAUCAAAUCCCAAAUGAUUUAUGAGAUCAUUGAUAAUUCUCAAGGAUUUUAUGUAUGCCCAGUGGAGCGCCAGAAUAGAAGCAGGAUGAACAUCCCAUUUCGCAUUGGCAACGCCAAAGGAGACGAAGCUUUGGAAAAGCGGUUUCUUGACAAGGCGGUAGAACUCAACAUGAUCUCCUUGAAGGGGCACAGGUCAGUGGGAGGCAUUCGUGCCUCUCUGUAUAACGCUGUCACAACCGAAGACGUUGAGAAGCUGGCGGCCUUCAUGAAGAAUUUCUUGGAGAUGCAUCAGCUGUGA
modifications: N1-methylpseudouridine
[1]
  glycine levels in heart: increase
  serine levels in heart: increase
[2]
  NRVM / CM apoptosis (TUNEL+ CMs): significantly inhibited
[3]
  staining for nuclear 8-OHG (nuclear foci per CMs): significantly lower
  staining for pATM (nuclear foci per CMs): significantly lower
[4]
  stabilized β-catenin localisation to CM nuclei: translocated
  β-catenin stabilization: significantly induced
[5]; 1-month post-MI
  location of the increase in single color CMs in the heart: mainly in the infarct border zone
[5]; 1-month post-MI, compared to Luc modRNA
  % single color (green or red positive) CMs compared to total labeled CMs: increased
[5]; 28 days post-MI
  nucleation of the majority of single color CMs: mononucleated
